Target: PNKP (UniProt Q96T60)
Assay: Ni-NTA co-purification of XRCC1-His complexes, immunoblot
Details: reference: wild-type XRCC1-His; sites S518,T519,T523

XRCC1 (from UniProt P18887) XRCC1-His S518A/T519A/T523A
binding against the reference: weaker
